The series deals with the molecule itself. The series is described as follows: crystal structure.

The values below come from publication PMC9239388 (Journal of Inflammation Research, 2022).

B1: human anionic trypsin (TRY2), enterokinase activated, cleaved at the Arg122-Val123 bond (enzyme)
chain 1: IVGGYICEENSVPYQVSLNSGYHFCGGSLISEQWVVSAGHCYKSRIQVRLGEHNIEVLEGNEQFINAAKIIRHPKYNSRTLDNDILLIKLSSPAVINSR
chain 2: VSAISLPTAPPAAGTESLISGWGNTLSSGADYPDELQCLDAPVLSQAECEASYPGKITNNMFCVGFLEGGKDSCQGDSGGPVVSNGELQGIVSWGYGCAQKNRPGVYTKVYNYVDWIKDTIAANS
On to B1, for which the binding result is listed as “binds”.
